Key:
[1] = target: T1, human VEGF (human, UniProt P15692-4 27-191); test: SPR (Biacore), VEGF surface
T1 construct: Immobilised on a CM5 chip for Biacore; the same name is used for the rhVEGF of the HUVEC assay; also called hVEGF; rhVEGF

[2] = target: T1, human VEGF; test: SPR (Biacore), VEGF surface; reference 219R0202 IgG
[3] = target: T2, full length human DLL4 on transfected human 293 HEK cells (human, UniProt Q9NR61 27-685); test: flow cytometry on HEK 293 cells transfected with human DLL4; reference 21M18
T2 construct: whole, on cells; also called hDLL4 transfected cells; human DLL4 transfected cells
Description: Briefly, Human 293 HEK cells were transfected using Fugene 6 transfection reagent as recommended by the manufacturer (Roche Inc.). Cells were transfected with cDNA expression vector encoding full length human DLL4, as well as a second vector encoding green fluorescent protein, pcDNA-GFP, to mark the transiently transfected cells. […] Cells were then rinsed twice with Staining Medium (HBSS with 2% FCS) and incubated with fluorescent secondary antibody, goat-anti-human IgG H/L-phycoerythrin (PE), at 1:200 dilution in PBS for 1 hour. Cells were then analyzed by flow cytometry using a FACS Caliber instrument (BD Bioscience). Specific SBGSP binding was assessed by determining the presence of cells positive for GFP signal and PE signal.

[4] = target: T2, full length human DLL4 on transfected …; test: flow cytometry on human 293 HEK cells transfected with full length human DLL4 and GFP; goat anti-human IgG H/L-PE; MFI against log(nM), non-linear fit
[5] = target: T1, human VEGF; test: SPR (Biacore 2000), recombinant VEGF immobilised on CM5, IgG injected
Description: (§1) IgG affinities were determined using a Biacore 2000 instrument. Briefly, recombinant proteins were immobilized on a CM5 chip using standard amine based chemistry (NHS/EDC). For each Fab and IgG, different concentrations (100-1 nM) were injected over the surface and kinetic data were collected over time. The data was fit using the simultaneous global fit equation to yield affinity constants (KD) for each Fab and IgG.

[6] = target: T3, mouse VEGF (mouse, UniProt Q00731-2 27-190, limits assumed); test: as above
T3 construct: also called mVEGF
T3 sequence (looked up): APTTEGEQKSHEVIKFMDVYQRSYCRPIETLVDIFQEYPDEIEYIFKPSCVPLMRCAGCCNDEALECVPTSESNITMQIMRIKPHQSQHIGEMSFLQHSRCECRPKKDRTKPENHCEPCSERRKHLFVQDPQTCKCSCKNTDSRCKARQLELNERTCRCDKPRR
Description: as §1

[7] = target: the molecule itself; test: non-reducing western blot of conditioned medium of transfected HEK293 cells, anti-FLAG (left, middle) and anti-Fc (right); homodimer of the minibody
Description: Var1 contains amino acid 249 Lys to Glu substitution and amino acid 288 Lys to Glu substitution within the CH3 domain. Antibody Var2 contains substitutions of amino acid 249 Lys to Glu substitution, amino acid 286 Tyr to Phe, and amino acid 288 Lys to Glu within the CH3 domain. Antibody Var3 (also referred to as 13A) contains substitutions of amino acid 236 Glu to Lys and amino acid 278 Asp to Lys. HEK293 cells were transiently transfected with combinations of expression vectors as indicated. Non-reducing Western blot analysis was conducted with an anti-FLAG antibody to reveal the size of the secreted antibody products.
Amino acid substitutions were introduced into either a truncated heavy chain (termed mini-body) containing the linker and CH2-CH3 region of a heavy chain, or a full length antibody heavy chain heavy chain.

B1: 219R0202-21M18 single gene bispecific antibody (SGBSP) (bispecific antibody, human IgG2, kappa)
chain 1: DIQLTQSPSSLSASVGDRVTITCRASQGINNHLAWYQQKPGKVPKSLIYAASNLHSGVPSKFSGSGSGTHFTLIISSLQPEDIATYYCQQYDNLPLTFGGGTKVEIKRTVAAPSVFIFPPSDEQLKSGTASVVCLLNNFYPREAKVQWKVDNALQSGNSQESVTEQDSKDSTYSLSSTLTLSKADYEKHKVYACEVTHQGLSSPVTKSFNRGECGGGGGSGGGGSGGGGSGGGGSGGGGSGGGGSQVQLKQSGAELVKPGASVKLSCKASGYTFTNYWMHWVKLRPGQGFEWIGDINPSNGGTSYNEKFKRKATLTVDKSSSTAYMQLSSLTSEDSAVYYCTIHYYDNSYAMDYWGQGTSVTVSSASTKGPSVFPLAPCSRSTSESTAALGCLVKDYFPEPVTVSWNSGALTSGVHTFPAVLQSSGLYSLSSVVTVPSSNFGTQTYTCNVDHKPSNTKVDKTVERKCCVECPPCPAPPVAGPSVFLFPPKPKDTLMISRTPEVTCVVVDVSHEDPEVQFNWYVDGVEVHNAKTKPREEQFNSTFRVVSVLTVVHQDWLNGKEYKCKVSNKGLPAPIEKTISKTKGQPREPQVYTLPPSREKMTKNQVSLTCLVKGFYPSDIAVEWESNGQPENNYKTTPPMLKSDGSFFLYSKLTVDKSRWQQGNVFSCSVMHEALHNHYTQKSLSLSPGK
chain 2: DIVMTQSPDSLAVSLGERATISCRASESVDNYGISFMKWFQQKPGQPPKLLIYAASNQGSGVPDRFSGSGSGTDFTLTISSLQAEDVAVYYCQQSKEVPWTFGGGTKVEIKRTVAAPSVFIFPPSDEQLKSGTASVVCLLNNFYPREAKVQWKVDNALQSGNSQESVTEQDSKDSTYSLSSTLTLSKADYEKHKVYACEVTHQGLSSPVTKSFNRGECGGGGSGGGGSGGGGSGGGGSGGGGSGGGGSQVQLVQSGAEVKKPGASVKISCKASGYSFTAYYIHWVKQAPGQGLEWIGYISSYNGATNYNQKFKGRVTFTTDTSTSTAYMELRSLRSDDTAVYYCARDYDYDVGMDYWGQGTLVTVSSASTKGPSVFPLAPCSRSTSESTAALGCLVKDYFPEPVTVSWNSGALTSGVHTFPAVLQSSGLYSLSSVVTVPSSNFGTQTYTCNVDHKPSNTKVDKTVERKCCVECPPCPAPPVAGPSVFLFPPKPKDTLMISRTPEVTCVVVDVSHEDPEVQFNWYVDGVEVHNAKTKPREEQFNSTFRVVSVLTVVHQDWLNGKEYKCKVSNKGLPAPIEKTISKTKGQPREPQVYTLPPSREEMTKNQVSLTCLVEGFYPSDIAVEWESNGQPENNYKTTPPMLDSDGSFFLYSELTVDKSRWQQGNVFSCSVMHEALHNHYTQKSLSLSPGK
notes: Heterodimer of two single-gene chains, anti-VEGF arm (13A) and anti-DLL4 arm (13B), IgG2; also called 219R0202_21M18 SGBSP; 219R0202-21M18 SGBSP
With B1 the Kd [1] was 6.9 nM, the “fold weaker binding affinity than 219R0202” value [2] was about 5 fold and the “fold loss in DLL4 binding activity compared to 21M18” value [3] was about 5 fold. For the same binder, the EC50 [4] was 10.2 nM.

B2: 219R0302 IgG (anti-VEGF antibody reformatted to IgG2) (antibody, V domains shown)
VH: QVQLKQSGAELVKPGASVKLSCKASGYTFTNYWMHWVKLRPGQGFEWIGDINPSNGGTSYNEKFKRKATLTVDKSSSTAYMQLSSLTSEDSAVYYCTIHYYDNSYAMDYWGQGTSVTVSS
VL: DIQMTQSPSSLSASVGDRVTITCQASQDISNYVNWYQQKPGKAPKLLIYDASNLQTGVPSRFSGRGSGTHFTFTISSLQPEDLATYYCQQYDDLPPTFGRGTKLEIKR
notes: Mouse VH from immunised mice paired with a human kappa light chain from a phagemid library; also called 21R0302
B2 was tested, and the Kd [1] was 2.1 nM, the Kd [5] was 2.1 nM and the Kd [6] was 21 nM.

B3: 219R0202 IgG (anti-VEGF antibody reformatted to IgG2) (antibody, V domains shown)
VH: QVQLKQSGAELVKPGASVKLSCKASGYTFTNYWMHWVKLRPGQGFEWIGDINPSNGGTSYNEKFKRKATLTVDKSSSTAYMQLSSLTSEDSAVYYCTIHYYDNSYAMDYWGQGTSVTVSS
VL: DIQLTQSPSSLSASVGDRVTITCRASQGINNHLAWYQQKPGKVPKSLIYAASNLHSGVPSKFSGSGSGTHFTLIISSLQPEDIATYYCQQYDNLPLTFGGGTKVEIKR
notes: Light chain variant of 219R0302 with the same heavy chain
Binder B3 has a Kd [1] of 1.5 nM, a Kd [5] of 1.5 nM and a Kd [6] of 23 nM.

B4: 21M18 (antibody, V domains shown)
VH: QVQLVQSGAEVKKPGASVKISCKASGYSFTAYYIHWVKQAPGQGLEWIGYISSYNGATNYNQKFKGRVTFTTDTSTSTAYMELRSLRSDDTAVYYCARDYDYDVGMDYWGQGTLVTVSS
VL: DIVMTQSPDSLAVSLGERATISCRASESVDNYGISFMKWFQQKPGQPPKLLIYAASNQGSGVPDRFSGSGSGTDFTLTISSLQAEDVAVYYCQQSKEVPWTFGGGTKVEIKR
notes: also called 21M18 antibody; anti-human DLL4 (21M18)
For B4, the EC50 [4] was 2 nM.

B5: Homo 13B (21M18) (antibody, human IgG2, kappa, V domains shown)
VH: QVQLVQSGAEVKKPGASVKISCKASGYSFTAYYIHWVKQAPGQGLEWIGYISSYNGATNYNQKFKGRVTFTTDTSTSTAYMELRSLRSDDTAVYYCARDYDYDVGMDYWGQGTLVTVSS
VL: DIVMTQSPDSLAVSLGERATISCRASESVDNYGISFMKWFQQKPGQPPKLLIYAASNQGSGVPDRFSGSGSGTDFTLTISSLQAEDVAVYYCQQSKEVPWTFGGGTKVEIKR
notes: also called 21M18 HC (with 13B mutation) expressed only with 21M18 LC
Binder B5 has an EC50 [4] of 7.7 nM.

B6: 219R0202-21M18 monovalent bispecific antibody (MBSP) with common 21M18 light chain (bispecific antibody, human IgG2, kappa)
heavy 1: QVQLKQSGAELVKPGASVKLSCKASGYTFTNYWMHWVKLRPGQGFEWIGDINPSNGGTSYNEKFKRKATLTVDKSSSTAYMQLSSLTSEDSAVYYCTIHYYDNSYAMDYWGQGTSVTVSSASTKGPSVFPLAPCSRSTSESTAALGCLVKDYFPEPVTVSWNSGALTSGVHTFPAVLQSSGLYSLSSVVTVPSSNFGTQTYTCNVDHKPSNTKVDKTVERKCCVECPPCPAPPVAGPSVFLFPPKPKDTLMISRTPEVTCVVVDVSHEDPEVQFNWYVDGVEVHNAKTKPREEQFNSTFRVVSVLTVVHQDWLNGKEYKCKVSNKGLPAPIEKTISKTKGQPREPQVYTLPPSREKMTKNQVSLTCLVKGFYPSDIAVEWESNGQPENNYKTTPPMLKSDGSFFLYSKLTVDKSRWQQGNVFSCSVMHEALHNHYTQKSLSLSPGK
heavy 2: QVQLVQSGAEVKKPGASVKISCKASGYSFTAYYIHWVKQAPGQGLEWIGYISSYNGATNYNQKFKGRVTFTTDTSTSTAYMELRSLRSDDTAVYYCARDYDYDVGMDYWGQGTLVTVSSASTKGPSVFPLAPCSRSTSESTAALGCLVKDYFPEPVTVSWNSGALTSGVHTFPAVLQSSGLYSLSSVVTVPSSNFGTQTYTCNVDHKPSNTKVDKTVERKCCVECPPCPAPPVAGPSVFLFPPKPKDTLMISRTPEVTCVVVDVSHEDPEVQFNWYVDGVEVHNAKTKPREEQFNSTFRVVSVLTVVHQDWLNGKEYKCKVSNKGLPAPIEKTISKTKGQPREPQVYTLPPSREEMTKNQVSLTCLVEGFYPSDIAVEWESNGQPENNYKTTPPMLDSDGSFFLYSELTVDKSRWQQGNVFSCSVMHEALHNHYTQKSLSLSPGK
light: DIVMTQSPDSLAVSLGERATISCRASESVDNYGISFMKWFQQKPGQPPKLLIYAASNQGSGVPDRFSGSGSGTDFTLTISSLQAEDVAVYYCQQSKEVPWTFGGGTKVEIKRTVAAPSVFIFPPSDEQLKSGTASVVCLLNNFYPREAKVQWKVDNALQSGNSQESVTEQDSKDSTYSLSSTLTLSKADYEKHKVYACEVTHQGLSSPVTKSFNRGEC
notes: also called 219R0202_21M18 MBSP
B6 was tested, and the Kd [1] was 21 nM, the “fold weaker binding affinity than 219R0202” value [2] was about 14 fold and the “fold loss in DLL4 binding activity compared to 21M18” value [3] was about 3 fold. The EC50 [4] was 6.2 nM.

B7: FLAG tagged minibody with wild type human IgG2 CH2 and CH3 domains (WT) (other)
chain: DYKDDDDKCVECPPCPAPPVAGPSVFLFPPKPKDTLMISRTPEVTCVVVDVSHEDPEVQFNWYVDGVEVHNAKTKPREEQFNSTFRVVSVLTVVHQDWLNGKEYKCKVSNKGLPAPIEKTISKTKGQPREPQVYTLPPSREEMTKNQVSLTCLVKGFYPSDIAVEWESNGQPENNYKTTPPMLDSDGSFFLYSKLTVDKSRWQQGNVFSCSVMHEALHNHYTQKSLSLSPGK
notes: also called WT minibody
B7: binds [7].

B8: FLAG tagged minibody variant Var1 (13B) (other)
chain: DYKDDDDKCVECPPCPAPPVAGPSVFLFPPKPKDTLMISRTPEVTCVVVDVSHEDPEVQFNWYVDGVEVHNAKTKPREEQFNSTFRVVSVLTVVHQDWLNGKEYKCKVSNKGLPAPIEKTISKTKGQPREPQVYTLPPSREEMTKNQVSLTCLVEGFYPSDIAVEWESNGQPENNYKTTPPMLDSDGSFFLYSELTVDKSRWQQGNVFSCSVMHEALHNHYTQKSLSLSPGK
B8: binds [7].

Reference: patent US20110123532A1 (ONCOMED PHARMACEUTICALS, published 2011)
